Source: article PMC5750218, “Protein-inspired antibiotics active against vancomycin- and daptomycin-resistant bacteria” (Nature Communications, 2018)
Values after ≈ are worked out from the molar mass of the structure shown. Where two headings read alike, the source gives them in different places.

What was measured:
[1] = system: S. aureus ATCC 43300 MRSA; assay: microbe, parasite or virus in culture; type: cell-based, Staphylococcus aureus; details: for MIC: Staphylococcus aureus, 24 h, read-out: MIC S. aureus ATCC 43300 MRSA
Procedure: (§1) The compounds, along with standard antibiotics were serially diluted twofold across the wells of 96-well non-binding surface (NBS) polystyrene plates (Corning 3641). […] Standards ranged from 64 to 0.03 µg mL^−1 and compounds from 8 to 0.003 µg mL^−1 with final assay volumes of 100 µL per well. Gram-positive bacteria were cultured in Mueller Hinton broth (MHB) (Bactolaboratories, Cat. no. 211443) at 37 °C overnight. A sample of each culture was then diluted 40-fold in fresh MHB and incubated at 37 °C for 2–3 h. The resultant mid-log phase cultures were added to the compound-containing 96-well plates to give a final cell density of 5 × 10^5 colony forming unit (CFU) mL^−1. All the plates were covered and incubated at 37 °C for 24 h. MICs were the lowest concentration showing no visible growth.

[2] = system: Vancomycin-resistant (VanA) Enterococcus faecium ATCC 51559; assay: microbe, parasite or virus in culture
Method in brief: (§2)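 Each compound was serially diluted twofold in Mueller Hinton broth, spanning 8 to 0.003 µg mL^−1, and incubated with bacteria for 24 h at 37 °C before visual scoring of growth.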

[3] = system: Vancomycin-intermediate S. aureus NRS1; assay: microbe, parasite or virus in culture
Method in brief: as §2

[4] = system: Multi-drug-resistant S. pneumoniae ATCC 700677; assay: microbe, parasite or virus in culture
Method in brief: as §2

S. pneumoniae ATCC 33400 = assay: microbe, parasite or virus in culture; type: cell-based, Streptococcus pneumoniae; details: Streptococcus pneumoniae, ATCC33400, 24 h, read-out: MIC S. pneumoniae ATCC 33400
Procedure: as §1

Haemolysis assay = type: cell-based; details: human, % Human Whole Blood Haemolysis
Procedure: Haemolytic activity was measured as previously described with slight modifications, [45]. Fresh human venal blood was collected from healthy volunteers and pretreated with the anticoagulant sodium citrate. Serial twofold dilutions of each antibiotic, dissolved in 0.9% NaCl solution, were added to fresh human whole blood (50% final, vol:vol) to the final volume of 80 μL and incubated at 37 °C for 3 h on a horizontal shaker at 200 rpm. For negative and positive controls, human whole blood in 0.9% NaCl solution (A blank) and in sdH2O (A water) were used, respectively. After incubation, both test and A blank were mixed with 1 mL 0.9% NaCl solution, or sdH2O for the complete […] A water. After centrifugation of samples at 2500 rpm (700 × g) for 5 min, the release of haemoglobin was monitored by measuring the absorbance (A sample) of the supernatant at 540 nm using BMG Labtech PolarStar Omega multimode reader. The percentage of haemolysis was calculated according to the equation: %haemolysis=Asample-Ablank∕Awater-Ablank×100

[5] = In vivo pharmacokinetics in mice; details: mouse; for level at […]: 0.250 h; for level at 0.5 h: 0.500 h; for MRT inf: read-out: MRT0-inf; for MRT last: read-out: MRT0-last
Procedure: Performed by WuXi AppTec (Shanghai) Co., Ltd. Seven to 9-week-old male CD1 mice (SLAC Laboratory Animal Co. Ltd., Shanghai, China) weighing 25–35 g were acclimated for approximate 3 days before being used in the study. Animals are group housed during acclimation and in-life study in compliance with the National Research Council 'Guide for the Care and Use of Laboratory Animals.' The animal room environment is controlled (target conditions: temperature 18 to 26 °C, relative humidity 30–70%, 12 h artificial light and 12 h dark) with temperature and relative humidity monitored daily. Animals were deprived of food for approximately 16 h before formulation administration then allowed access to Certified Rodent Diet (Catalogue # M-01F, Shanghai SLAC Laboratory Animal Co. Ltd.) ad libitum 4 h post dosing. Water was autoclaved before being provided to the animals ad libitum. Formulations of compounds were prepared on the morning of the dosing day. The formulation for the IV group was filtered with filter of 0.22 μm before being dosed to animals. After dose formulation preparation, duplicate 50 μL aliquots were removed from each dose formulation for use in dose validation. For each compound studied, three mice were dosed intravenously (IV) administered to each animal via tail vein per facility SOPs using test article formulated in deionised water at 1 mg mL^−1 with a dose volume of 2 mg mL^−1, providing a dose of 2 mg mL^−1 (based on free base concentration). An additional three mice were dosed subcutaneously (SC) administered to each animal via subcutaneous bolus on each animals’ back per facility SOPs using test article formulated in deionised water at 2 mg mL^−1 with a dose volume of 5 mg mL^−1, providing a dose of 10 mg mL^−1. All animals were killed at the last study time point (100% CO2 was introduced into the animal box).
Plasma samples were collected as the following target times after each dose administration: IV Sampling Time points (hours post dosing): 0, 0.083, 0.25, 0.5, 1, 2, 4, 8 and 24. SC Sampling Time points (hours post dosing): 0, 0.25, 0.5, 1, 2, 4, 8 and 24. Approximately 30 μL blood was obtained via submandibular or saphenous vein for the first several time points. For the last time point, samples were collected via cardiac puncture while the mouse was under anaesthesia. All blood samples were transferred into pre-chilled plastic microcentrifuge tubes containing 2 μL of ethylenediaminetetraacetic acid dipotassium salt (K2-EDTA) (0.5 M) as anticoagulant and placed on wet ice until centrifugation. Harvested blood samples were centrifuged within 30 min of collection at 7000 rpm (8546 × g) 4 °C for about 10 min. After centrifugation, plasma was transferred into another pre-labelled and pre-chilled polypropylene microcentrifuge tubes, then quick-frozen over dry ice and stored at −70 ± 10 °C until LC/MSMS analysis.
LC-MS/MS methods for the quantitative determination of the test article in mouse plasma were developed with an internal standard. Benchtop stability of the compound in mouse plasma was determined at mid QC concentrations in triplicate at 0, 2 h at room temperature. The stability was determined using mean peak area ratio of T2/T0 sample. If the mean peak area ratio is within 80%~120%, the test article in the plasma is considered stable for 2 h at room temperature. […] A set of QC samples consists of three concentration levels (low, middle and high). The sample analysis was performed concurrently with a set of calibration standards and two sets of QC samples using the LC-MS/MS method.
Plasma concentration vs. time data from individual animals was analysed by WinNonLin non-compartmental model (Phoenix WinNonlin 6.2.1, Pharsight, Mountain View, CA). Pharmacokinetic parameter C 0, T ½, CL, Vdss, C max, T max, AUC0-last, AUC0-inf, %F, MRT0-last, MRT0-inf and graphs of plasma concentration vs. time profile were derived.

[6] = male, CD1, plasma, 2 mg/kg IV, read-out: Plasma concentration, Mean IV
[7] = male, CD1, plasma, 10 mg/kg SC, read-out: Plasma concentration, Mean SC

SMILES: CCCCCCCCCC(=O)N[C@@H](Cc1c[nH]c2ccccc12)C(=O)N[C@H](CC(N)=O)C(=O)N[C@@H](CC(=O)O)C(=O)N[C@@H]1C(=O)NCC(=O)N[C@@H](CCCN)C(=O)N[C@@H](CC(=O)O)C(=O)N[C@H](C)C(=O)N[C@@H](CC(=O)O)C(=O)NCC(=O)N[C@H](CO)C(=O)N[C@@H]([C@H](C)CC(=O)O)C(=O)N[C@@H](CC(=O)c2ccccc2N)C(=O)O[C@@H]1C [Compound 4, Daptomycin]
- MIC ([1]; 1% Survanta): > 8 µg/mL
- MIC ([1]; 5% Survanta): > 8 µg/mL
- MIC ([1]; no added Survanta): 2 µg/mL (≈ 1.23 µM)
- MIC ([2]; Enterococcus faecium, ATCC51559 / VRE, read-out: MIC VRE): 16 µg/mL (≈ 9.87 µM)
- MIC ([3]; Staphylococcus aureus, NRS1 / VISA, read-out: MIC VISA): 12 µg/mL (≈ 7.4 µM)
- MIC ([4]; Streptococcus pneumoniae, ATCC700677, read-out: MIC MDR S.P.): 2 µg/mL (≈ 1.23 µM)
- MIC (S. pneumoniae ATCC 33400; 1% Survanta): > 8 µg/mL
- MIC (S. pneumoniae ATCC 33400; 5% Survanta): > 8 µg/mL
- MIC (S. pneumoniae ATCC 33400; no added Survanta): 2 to 4 µg/mL (≈ 1.23 to 2.47 µM)
- hemolysis at 3 h, 25 µg mL-1 (Haemolysis assay): 0%
- hemolysis at 3 h, 50 µg mL-1 (Haemolysis assay): 0.4%
- hemolysis at 3 h, 100 µg mL-1 (Haemolysis assay): 0%
- hemolysis at 3 h, 200 µg mL-1 (Haemolysis assay): 0.3%
- hemolysis at 3 h, 400 µg mL-1 (Haemolysis assay): 0.9%
- hemolysis at 3 h, 800 µg mL-1 (Haemolysis assay): 0.3%
- hemolysis at 3 h, 1600 µg mL-1 (Haemolysis assay): 1.6%

SMILES: CCCCCCCCCCC(=O)N[C@@H](CCCCN)C(=O)N[C@@H](CCCCN)C(=O)N[C@@H](CCCCNC(=O)[C@H]1NC(=O)[C@H]2NC(=O)[C@H](NC(=O)[C@@H]3NC(=O)[C@H](CC(N)=O)NC(=O)[C@H](NC(=O)[C@@H](CC(C)C)NC)[C@H](O)c4ccc(c(Cl)c4)Oc4cc3cc(c4O[C@@H]3O[C@H](CO)[C@@H](O)[C@H](O)[C@H]3O[C@H]3C[C@](C)(N)[C@H](O)[C@H](C)O3)Oc3ccc(cc3Cl)[C@H]2O)c2ccc(O)c(c2)-c2c(O)cc(O)cc21)C(N)=O [Compound 21, nC10CO-KK-K(Vancomycin)-NH2]
- level at 5 min ([5]; male, CD1, plasma, 2 mg/kg IV, 5 min, n=3, read-out: Plasma concentration, Mean IV): 10000 ng/mL
- level at […] [5, 6]: 5680 ng/mL
- level at 0.5 h [5, 6]: 4330 ng/mL
- level at 1 h [5, 6]: 2470 ng/mL
- level at 2 h [5, 6]: 1940 ng/mL
- level at 4 h [5, 6]: 758 ng/mL
- level at 8 h [5, 6]: 49.4 ng/mL
- level at […] ([5]; male, CD1, plasma, 10 mg/kg SC, n=3, read-out: Plasma concentration, Mean SC): 944 ng/mL
- level at 0.5 h [5, 7]: 1440 ng/mL
- level at 1 h [5, 7]: 2950 ng/mL
- level at 2 h [5, 7]: 3140 ng/mL
- level at 4 h [5, 7]: 2320 ng/mL
- level at 8 h [5, 7]: 1370 ng/mL
- level at 24 h ([5]; male, CD1, plasma, 10 mg/kg SC, 24.0 h, read-out: Plasma concentration, Mean SC): 45 ng/mL
- AUC0-inf/AUC0-last ([5]; IV 2 mg kg-1): 101%
- Tlast ([5]; IV 2 mg kg-1): 8 h
- AUC0-inf/AUC0-last ([5]; SC 10 mg kg-1): 101%
- Tlast ([5]; SC 10 mg kg-1): 24 h
- bioavailability ([5]; plasma, subcutaneous, SC 10 mg kg-1 vs IV 2 mg kg-1): 43%
- AUC(0-inf) ([5]; plasma, IV 2 mg kg-1): 10900 ng·h/mL
- AUC(0-t) ([5]; plasma, IV 2 mg kg-1): 10800 ng·h/mL
- C0 ([5]; plasma, IV 2 mg kg-1): 14200 ng/mL
- clearance ([5]; plasma, IV 2 mg kg-1): 3.13 mL/min/kg
- half-life ([5]; plasma, IV 2 mg kg-1): 1.12 h
- MRT inf ([5]; plasma, IV 2 mg kg-1): 1.7 h
- MRT last ([5]; plasma, IV 2 mg kg-1): 1.6 h
- Vd ([5]; plasma, IV 2 mg kg-1, read-out: Vdss): 0.31 L/kg
- AUC(0-inf) ([5]; plasma, SC 10 mg kg-1): 23400 ng·h/mL
- AUC(0-t) ([5]; plasma, SC 10 mg kg-1): 23100 ng·h/mL
- Cmax ([5]; plasma, SC 10 mg kg-1): 3560 ng/mL
- Tmax ([5]; plasma, SC 10 mg kg-1): 2.33 h
- half-life ([5]; plasma, SC 10 mg kg-1): 3.4 h
- MRT inf ([5]; plasma, SC 10 mg kg-1): 6.3 h
- MRT last ([5]; plasma, SC 10 mg kg-1): 6 h
- MIC S. aureus ATCC 43300 MRSA ([1]; 1% Survanta): 0.007 µg/mL (≈ 0.0035 µM)
- MIC S. aureus ATCC 43300 MRSA ([1]; 5% Survanta): 0.03 µg/mL (≈ 0.015 µM)
- MIC S. aureus ATCC 43300 MRSA ([1]; no added Survanta): 0.015 µg/mL (≈ 0.0075 µM)
- MIC VRE ([2]; ATCC 51559): 2 µg/mL (≈ 0.999 µM)
- MIC VISA ([3]; Vancomycin-intermediate NRS1): 0.06 µg/mL (≈ 0.03 µM)
- MIC MDR S.P. ([4]; ATCC 700677): 0.015 µg/mL (≈ 0.0075 µM)
